# Measured values: US20200339680A1 (Alector, published 2020)
# Changes are numbered by the printed parent chain.
# B1: TM-23 (antibody, V domains shown)
# VH: QVQLQQSGAELIRPGTSVKVSCKASGYAFTNYLIEWVKKRPGQGLEWIGVINPGSGITNYNEKFKGKATLTADKSSSTAYMQLSSLTSEDSAVYFCARSDFITTVVADYWGQGTTVTVSS
# VL: DIVVTQTPLSLPVSFGDQVSISCRSSQSLTNYYGNTYLSWYLHKPGQSPQLLIYGISNRFSGVPDRFSGSGSGTDFTLKISTIKPEDLGMYYCLQGTHQPRTFGGGTKLEIK
# B2: TM-26 (antibody, V domains shown)
# VH: B1 VH
# VL: B1 VL
# B3: TM-27 (antibody, V domains shown)
# VH: QVQLQQSGAELVRPGTSVKVSCKASGYALTNYLIEWVKQRPGQGLEWIGVINPGSGSTKYNEKFKGKATLTADKSSSTAYMQLSSLTSEDSAVYFCARIIYDHDWYFDVWGTGTTVTVSS
# VL: QIVLTQSPAIMSASPGEKVTISCSASSSISYMYWYQQKPGSSPKPWIYRTSTLASGVPARFSGSGSGTSYSLTISSMEAEDAATYYCQQYHSYPRTFGGGTKLEIK
# B4: TM-49 (antibody, V domains shown)
# VH: QVQLQQPGAELVRPGSSVKLSCKASGYTFTRFWMHWVKQRPIQGLEWIGNIDPSDSQTHYNQKFKDKATLTVDKSSSTAYMQLSSLTSEDSAVYYCARLITVDYAMDYWGQGTSVTVSS
# VL: B3 VL with I29V, Y48H, T52N, A59V, R95P, G99A, I105L
# notes: mouse IgG (hybridoma)
# B5: TM-28 (antibody, V domains shown)
# VH: EVQLQQSGPVLVKPGPSVKISCMASVFTFNDYYIHWVKQSHGKSLEWIGLVYPYNGGTNYNQNFKGKATLTVDTSSRTAYMELNSLTSEDSAVYYCARSYFSNPIGYWGQGTLVTVSE
# VL: DIVMTQSPSSLSVSVGEKVTVSCKSSQSLLNSGNQKNYLAWYQQKPGQPPKLLIYGASTRESGVPDRFTGSGSGTDFTLTISSVQAEDLAVYYCQNDHSYPLTFGAGTKLELK
# B6: TM-42 (antibody, V domains shown)
# VH: QVQLQQSGAELAKPGASVKLSCKASGYTFTNYWMHWVKKRPGQGLEWIGYINPSSGYTKYNQKFKDKATLTADKSSNTAYMQLSSLTYEDSAVYYCTREGGSISDWYFDVWGTGTTVTVSS
# VL: DIVMTQAAPSLPVTPGESVSISCRSSKSLLHSNGNTYLYWFLQRPGQSPQLLIYRMSNLASGVPDRFSGSGSGTAFTLRISRVEAEDVGVYYCMQHLEYPYTFGGGTKLEIK
# B7: TM-45 (antibody, V domains shown)
# VH: B6 VH
# VL: B6 VL
# B8: TM-37 (antibody, V domains shown)
# VH: B6 VH with N31S, K39Q, I51V, Y60N, A68V, N77S, T97A
# VL: B6 VL with L11V, L38S
# B9: TM-35 (antibody, V domains shown)
# VH: QVQLQQSGPELVRPGTSVKISCKAPGYTFTRHWMQWVRQRPGQGLEWIGEILPGSNNIYYNEKVKGKATLTVDTSSSTSYMQLSSLTSEDSAVYFCARSLYDYDGVFAYWGQGTLVTVSA
# VL: DVLMTQIPLSLPVSLGDQASISCRSSQSIVHRNGNTYLEWYLQKPGQSPKLLIYKVSNRFSGVPDRFSGSGSGTDFTLKISRVEAEDLGVYYCFQGSHVPYTFGGGTKLEIK
# B10: TM-48 (antibody, V domains shown)
# VH: QVQLQQSGPELVKPGASVKLSCKASGYTFTSYDINWVKQRPGQGLEWIGWIYPRDGNTQYIEKLKGKATLTVDTSSSTAYMELHSLTSEDSAVYFCARWIFYAMDYWGQGTSVTVSS
# VL: B9 VL with I7T, D17N, R32G, V99L
# B11: TM-33 (antibody, V domains shown)
# VH: EFQLQQSGPELVKPGASVKISCKASGYSFTDYNMNWVKQSNGKSLEWIGVINPNYGTTSYNQKFKGKATLTVDQSSSTAYMQLNSLTSEDSAVYYCASSYWGQGTLVTVSA
# VL: DIVMTQSQKFMSTTVGDRVSITCKASQNVGTAVAWYQQKPGQSPKLLIYSASNRYTGVPDRFTGSGSGTDFTLTISNMQSEDLADYFCQQYSSYPYTFGGGTKLEIK
# notes: mouse IgG (hybridoma)
# B12: TM-25 (antibody, V domains shown)
# VH: EVQLVESGGDLVKPGGSLRLSCAASGFTFSGYGMSWIRQTPDKRLEWVATISSGGRYTVYPDSVKGRFTMSRDNVKNTLYLQMSSLKSEDTALYYCARDNFYSYAMDYWGLGTSVTVSA
# VL: DIVMTQAAFSNPVTLGTSASISCRSSKSLLHSNGITYLFWYLQKPGQSPQLLIYQMSNLASGVPDRFSSSGSGTDFTLRISRVEAEDVGVYYCAQNLELWTFGGGTKLEIK
# B13: TM-44 (antibody, V domains shown)
# VH: EVQLVESGGGLVKPGGSLKLSCAASGFTFSDYGMHWVRQAPEKGLEWVAYISSGSSTIYYADTVKGRFTISRDNAKNTLFLQMTSLRSEDTAMYYCARNYGSPYAMDYWGQGTSVTVSS
# VL: not shown
# notes: mouse IgG (hybridoma)
# B14: TM-29 (antibody, V domains shown)
# VH: QVQLRQSGAELVRPGASVKLSCKASGYTFTDYYINWVKQRPGQGLEWIARIYPGSGYTYYNEKFKGKATLTAEGSSNTAYMQLSSLTSEDSAVYFCANHYTNPFAYWGQGTLVTVSA
# VL: DIVMTQAAFSNPVTLGTSASISCRSSKSLLHYNGITYLYWYLQKPGQSPQLLIYQMSNLASGVPDRFSSSGSGTDFTLRISRVEAEDVGVYYCAQNLELPYTFGGGTKLEIK
# Molecular target: T1, human TMEM106B (human, UniProt Q9NUM4 2-274)
# T1 construct: full-length, transiently expressed on HEK293 cells, or natively expressed on HeLa, U251 and A549 cells (the cell is named under assay); also the source of the Pepscan peptides; also called huTMEM106B; huTMEM
# Assay: FACS A549 1 ug/ml
row,Binder,MFI [MFI]
1,B1,398
2,B2,380
3,B3,431
4,B4,473
5,B5,2630
6,B6,1780
7,B7,1860
8,B8,2980
9,B9,3270
10,B10,1580
11,B11,366
12,B12,4530
13,B13,404
14,B14,2480

# Molecular target: T2, mouse TMEM106B (mouse, UniProt Q80X71 2-275)
# T2 construct: transiently expressed on HEK293 cells, or native on mouse Neuro2a cells; also called moTMEM106B; murine TMEM106B
# Assay: FACS Neuro2a;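 further: flow cytometry of antibody binding to cells: hybridoma supernatant or purified antibody at 10 µg/ml, 1 h on ice, secondary detection, propidium iodide–positive dead cells gated out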
# Protocol: (§1) All cells were cultured in either T75 or T150 flasks. […] The enzyme was quenched by addition of fresh media, and the cells were then distributed into 96-well plates for FACS analysis.
# (§2) FACS analysis was performed as follows. Each cell type was aliquoted in 96-well round bottom plates (2×10^5 cells per well), washed once with FACS buffer (PBS+2% FBS+1 mM EDTA), and incubated with 50 μL of hybridoma supernatant or purified antibody (10 μg/ml in FACS buffer) on ice for 1 hour. […] Following this secondary incubation, the cells were again washed 2× with ice-cold FACS buffer and resuspended in a final volume of 50 μL of FACS buffer+0.25 μl/well propidium iodide (Fisher Scientific #4BDB556463). Analysis was performed on a FACSCanto system (BD Biosciences) or iQue (Intellicyt), with sort gates drawn to exclude dead (i.e., propidium iodide positive) cells.
row,Binder,MFI [MFI]
1,B1,333
2,B2,324
3,B3,1580
4,B4,291
5,B5,2740
6,B6,237
7,B7,187
8,B8,208
9,B9,181
10,B10,292
11,B11,233
12,B12,354
13,B13,202
14,B14,1480

# Molecular target: T1, human TMEM106B
# Assay: FACS HEK+huTMEM 0.1 ug/ml (2nd column so headed);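 further: flow cytometry binding of purified anti-TMEM106B mouse IgG to HEK293 cells transiently transfected with TMEM106B, read as median fluorescence intensity on live (propidium iodide-negative) cells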
# Protocol: (§3) Purified anti-TMEM106B antibodies were evaluated for their binding affinity to various TMEM106B-expressing cell lines including HEK293 transiently transfected with human/cyno/mouse TMEM106B, as well as HeLa cells and A549 cells. Antibodies tested for this experiment were mouse IgGs purified from hybridoma supernatant. Affinity binding to cells was determined as follows. Briefly, 1×10\hat{ }5 cells were aliquoted per well in 96-well round bottom plates and incubated with 50 μL of purified anti-TMEM106B antibody at various concentrations (10× dilutions starting at 10 μg/ml) in FACS buffer (PBS+2% FBS+1 mM EDTA). […] Sorting was performed on a iQue (Intellicyt), with sort gates drawn to exclude dead (propidium iodide+) cells. Binding data was analyzed using median fluorescent intensity (MFI) and graphed in Prism. Values presented are MFI.
row,Binder,MFI [MFI]
1,B1,1100
2,B2,1000
3,B3,744
4,B4,756
5,B5,3340
6,B6,2070
7,B7,2500
8,B8,3920
9,B9,4080
10,B10,4050
11,B11,651
12,B12,4310
13,B13,300
14,B14,4050

# Molecular target: T1, human TMEM106B
# Assay: FACS U251
row,Binder,MFI [MFI]
1,B1,278
2,B2,300
3,B3,1320
4,B4,434
5,B5,998
6,B6,326
7,B7,517
8,B8,408
9,B9,370
10,B10,346
11,B11,202
12,B12,1110
13,B13,522
14,B14,730

# Molecular target: T1, human TMEM106B
# Assay: FACS HEK+huTMEM 1.0 ug/ml;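 further: binding of purified mouse IgG antibodies to HEK293 cells transiently expressing human TMEM106B, read by flow cytometry as median fluorescence intensity of live, propidium iodide-negative cells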
# Protocol: as §3
row,Binder,MFI [MFI]
1,B1,3900
2,B2,3340
3,B3,3040
4,B4,15700
5,B5,66400
6,B6,58100
7,B7,57600
8,B8,58700
9,B9,55400
10,B10,39900
11,B11,5630
12,B12,64700
13,B13,337
14,B14,63300

# Molecular target: T1, human TMEM106B
# Assay: FACS HeLa
# Protocol: as §1, §2
row,Binder,MFI [MFI]
1,B1,308
2,B2,384
3,B3,2960
4,B4,187
5,B5,2790
6,B6,215
7,B7,191
8,B8,254
9,B9,241
10,B10,219
11,B11,148
12,B12,2560
13,B13,168
14,B14,1650

# Molecular target: T1, human TMEM106B
# Assay: FACS A549 10 ug/ml
# Protocol: as §3
row,Binder,MFI [MFI]
1,B1,757
2,B2,509
3,B3,622
4,B4,613
5,B5,4350
6,B6,3300
7,B7,3240
8,B8,4210
9,B9,4200
10,B10,2450
11,B11,514
12,B12,7000
13,B13,466
14,B14,4200

# Molecular target: T1, human TMEM106B
# Assay: FACS HEK+huTMEM 10 ug/ml;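 further: flow cytometric binding of purified mouse IgG antibodies to HEK293 cells transiently expressing human TMEM106B, read as median fluorescence intensity on live cells with propidium iodide-positive cells excluded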
# Protocol: as §3
row,Binder,MFI [MFI]
1,B1,12400
2,B2,3850
3,B3,4140
4,B4,16500
5,B5,64800
6,B6,60100
7,B7,58100
8,B8,50500
9,B9,48700
10,B10,38200
11,B11,12100
12,B12,60300
13,B13,512
14,B14,61200

# Molecular target: T1, human TMEM106B
# Assay: FACS A549;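 further: flow cytometry of cells incubated on ice for 1 h with hybridoma supernatant or purified antibody at 10 µg/mL, dead propidium iodide-positive cells gated out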
# Protocol: as §1, §2
row,Binder,MFI [MFI]
1,B1,1090
2,B2,952
3,B3,1930
4,B4,924
5,B5,2000
6,B6,947
7,B7,819
8,B8,1040
9,B9,982
10,B10,677
11,B11,298
12,B12,1700
13,B13,392
14,B14,1410

# Molecular target: T1, human TMEM106B
# Assay: FACS HEK+huTMEM 0.1 ug/ml;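 further: flow cytometry binding of purified mouse IgG antibodies to HEK293 cells transiently expressing TMEM106B, read as median fluorescence intensity on live cells (propidium iodide negative gating)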
# Protocol: as §3
row,Binder,MFI [MFI]
1,B1,2410
2,B2,1960
3,B3,1700
4,B4,3030
5,B5,19800
6,B6,16700
7,B7,21300
8,B8,29400
9,B9,22600
10,B10,21600
11,B11,1750
12,B12,32800
13,B13,309
14,B14,24400
